Data taken from article PMC8786347 (Oncoimmunology, 2022).

Tests used:
Assay in all cases: ELISA
CD27-huFc = target: T1, CD27-huFc (UniProt P26842 20-191)
T1 sequence (looked up): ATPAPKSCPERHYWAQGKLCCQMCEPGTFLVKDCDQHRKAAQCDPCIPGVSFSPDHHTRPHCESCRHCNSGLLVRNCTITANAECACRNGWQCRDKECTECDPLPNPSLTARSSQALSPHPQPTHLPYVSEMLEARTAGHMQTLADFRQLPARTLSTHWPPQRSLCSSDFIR

CD27-moFc = target: T2, CD27-moFc (UniProt P26842 20-191)
T2 sequence (looked up): T1 sequence (looked up)

OX40-moFc = target: T3, OX40-moFc (UniProt P43489 29-214)
T3 sequence (looked up): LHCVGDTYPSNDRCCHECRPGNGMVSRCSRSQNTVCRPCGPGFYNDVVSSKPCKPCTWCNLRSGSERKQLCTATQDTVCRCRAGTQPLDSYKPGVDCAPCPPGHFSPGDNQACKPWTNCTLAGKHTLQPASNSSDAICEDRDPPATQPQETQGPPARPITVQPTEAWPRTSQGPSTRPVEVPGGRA

EC50 (CD27-huFc): 0.3 nM | EC50 (CD27-moFc): 0.3 nM | EC50 (OX40-moFc): 0.3 nM
B1: scCD27L-scOX40L-Fc (Fc fusion, human)
chain 1: SLGWDVAELQLNHTGPQQDPRLYWQGGPALGRSFLHGPELDKGQLRIHRDGIYMVHIQVTLAICSSTTASRHHPTTLAVGICSPASRSISLLRLSFHQGCTIASQRLTPLARGDTLCTNLTGTLLPSRNTDETFFGVQWVRPGGSLGWDVAELQLNHTGPQQDPRLYWQGGPALGRSFLHGPELDKGQLRIHRDGIYMVHIQVTLAICSSTTASRHHPTTLAVGICSPASRSISLLRLSFHQGCTIASQRLTPLARGDTLCTNLTGTLLPSRNTDETFFGVQWVRPGGSLGWDVAELQLNHTGPQQDPRLYWQGGPALGRSFLHGPELDKGQLRIHRDGIYMVHIQVTLAICSSTTASRHHPTTLAVGICSPASRSISLLRLSFHQGCTIASQRLTPLARGDTLCTNLTGTLLPSRNTDETFFGVQWVRP
chain 2: QVSHRYPRIQSIKVQFTEYKKEKGFILTSQKEDEIMKVQNNSVIINCDGFYLISLKGYFSQEVNISLHYQKDEEPLFQLKKVRSVNSLMVASLTYKDKVYLNVTTDNTSLDDFHVNGGELILIHQNPGEFCVLGGGGSGGGGSGGGGSQVSHRYPRIQSIKVQFTEYKKEKGFILTSQKEDEIMKVQNNSVIINCDGFYLISLKGYFSQEVNISLHYQKDEEPLFQLKKVRSVNSLMVASLTYKDKVYLNVTTDNTSLDDFHVNGGELILIHQNPGEFCVLGGGGSGGGGSGGGGSQVSHRYPRIQSIKVQFTEYKKEKGFILTSQKEDEIMKVQNNSVIINCDGFYLISLKGYFSQEVNISLHYQKDEEPLFQLKKVRSVNSLMVASLTYKDKVYLNVTTDNTSLDDFHVNGGELILIHQNPGEFCVL
